Measurements reported in publication PMC5859253.

Columns and labels:
Assay in all cases: EMSA
Conditions in all cases: HilD/H-NS EMSA: 10 mM Tris-HCl pH 8, 50 mM KCl, 1 mM DTT, 0.5 mM EDTA, 5% glycerol, 10 ug/ml BSA, ~100 ng DNA, RT 20 min; PhoP EMSA: 20 mM Tris-HCl pH 7.4 …
PhoP-H6 (phosphorylated) = system: PhoP-H6 (phosphorylated)
[1] = system: H-NS-FH (H-NS-3XFLAG-6XHis) (Escherichia coli EPEC E2348/69)
[2] = system: MBP-HilD (Salmonella enterica serovar Typhimurium SL1344?)

| Substance | binding (PhoP-H6 (phosphorylated)) | binding [1] | binding [2] |
| --- | --- | --- | --- |
| ges promoter | > 6 µM |  |  |
| grhD1 promoter (PhoP EMSA) | 3 µM |  |  |
| grhD1 upstream region (HilD/H-NS EMSA) |  | 0.5 µM | > 1 µM |
| orgB promoter | 3 µM |  |  |
| sigD regulatory region |  | > 1 µM | > 1 µM |
| ssrAB regulatory region |  | 0.25 µM |  |
